Data taken from patent US20160146830A1 (published 2016).

molecular target: Tetanus toxoid (TT) (UniProt P04958 2-1315); experiment: competitive ELISA, IgG equilibrated with soluble TT, TT-coated plate
Sequence (P04958 2-457 limits assumed, chain 1 of 2): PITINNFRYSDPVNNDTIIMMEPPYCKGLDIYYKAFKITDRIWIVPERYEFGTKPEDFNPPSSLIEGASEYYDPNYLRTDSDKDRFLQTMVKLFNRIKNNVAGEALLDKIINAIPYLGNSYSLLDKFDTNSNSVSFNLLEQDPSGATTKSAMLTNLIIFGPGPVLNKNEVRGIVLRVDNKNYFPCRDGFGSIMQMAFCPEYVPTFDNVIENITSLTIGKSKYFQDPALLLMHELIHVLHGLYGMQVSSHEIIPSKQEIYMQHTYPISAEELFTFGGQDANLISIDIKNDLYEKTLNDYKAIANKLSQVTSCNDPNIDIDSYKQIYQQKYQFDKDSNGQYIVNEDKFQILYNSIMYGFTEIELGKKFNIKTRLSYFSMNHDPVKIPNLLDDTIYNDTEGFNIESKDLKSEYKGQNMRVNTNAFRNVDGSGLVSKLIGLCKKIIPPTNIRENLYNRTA
Sequence (P04958 458-1315 limits assumed, chain 2 of 2): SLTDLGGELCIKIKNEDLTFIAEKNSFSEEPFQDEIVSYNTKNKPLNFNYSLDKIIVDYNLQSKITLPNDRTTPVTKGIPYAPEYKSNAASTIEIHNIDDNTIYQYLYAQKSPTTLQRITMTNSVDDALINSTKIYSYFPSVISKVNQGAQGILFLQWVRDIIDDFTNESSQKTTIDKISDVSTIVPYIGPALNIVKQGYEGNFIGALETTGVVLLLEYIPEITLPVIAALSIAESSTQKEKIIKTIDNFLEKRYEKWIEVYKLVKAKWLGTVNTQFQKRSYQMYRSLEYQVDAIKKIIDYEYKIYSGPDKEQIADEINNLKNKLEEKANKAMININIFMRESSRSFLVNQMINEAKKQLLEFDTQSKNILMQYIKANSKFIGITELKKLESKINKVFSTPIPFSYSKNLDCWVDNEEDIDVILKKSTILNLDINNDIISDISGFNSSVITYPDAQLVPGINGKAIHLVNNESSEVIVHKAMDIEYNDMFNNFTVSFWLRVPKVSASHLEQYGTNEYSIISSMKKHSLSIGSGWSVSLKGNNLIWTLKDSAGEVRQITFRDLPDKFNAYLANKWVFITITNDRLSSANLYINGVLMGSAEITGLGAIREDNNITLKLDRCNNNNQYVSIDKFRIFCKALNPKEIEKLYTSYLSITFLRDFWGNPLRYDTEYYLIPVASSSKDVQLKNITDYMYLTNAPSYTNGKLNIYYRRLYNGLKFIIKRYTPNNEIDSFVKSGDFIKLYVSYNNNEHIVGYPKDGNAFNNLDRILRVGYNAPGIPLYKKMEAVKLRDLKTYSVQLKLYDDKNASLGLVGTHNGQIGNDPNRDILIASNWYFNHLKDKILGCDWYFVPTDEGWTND

Binder | Kd [nM]
TT-1 (antibody, V domains shown, also called VH-1/VL-1) VH: QVQLVESGGGLVQPGRSLRLSCVGSGFSFESYAMHWVRLAPGKGLEWVAGISWDSGAKGNADSVEGRFTISRDNAKKSVYLEMRSLRPEDTAFYYCAKAPIIGPKYYFYMDVWGKGTSVTVSS VL: EIVLTQSPGTLSLSPGERATLSCRASQRVKSSYLAWYQQKPGQAPRLLIYDASTRATGIPDRFSGSGSGTDFTLTISRLEPEDVAVYYCQQYGTSRGTFGQGTRLEIK | 1.6
TT-10 (antibody, V domains shown, also called VH-11/VL-11) VH: QVQLQESGGGLVQPGRSLRLSCVGSGFSFESYAMHWVRQAPGKGLEWVAGISWDSGAKGNADSVEGRFTISRDNAKKSLYLEMRSLRPEDTAFYYCAKAPIIGPKHYFYMDVWGKGTSVTVSS VL: EIVLTQSPGTLSLSPGERATLSCRASQRVKSSYLAWYQQKPGQAPRLLIYDASTRATGIPDRFSGSGSGTDFTLTISRLEPEDVAVYYCQQYGTSRGTFGQGTRLEIK | 0.9
TT-7 (antibody, V domains shown, also called VH-8/VL-8) VH: QVQLQESGPGLVRPSQTLSLTCTVSGDSISDGDSFWSWIRQPPGKGPEWIGYISSSGTTYYYPSLRGRLTVSLDASKNQFSLSLTSVTAADTAVYYCARARNYGFPHFFDFWGRGTLVTVSS VL: DIQMTQSPSTLSASVGDSVTITCRASQSITRWLAWYQQKPGKAPKLLIYKASLLESGVPSRFSGSGSGTEFTLTISSLQPDDFATYYCQQYNSYSPWTFGPGTKLEIK | 0.5
TT-11 (antibody, V domains shown, also called VH-13/VL-13) VH: QVQLVESGAEVKKPGASVRVSCKASGYTFTNYGLAWVRQAPGQGLEWMGWITVYNGHTSYAQKFHDRVTMTTDTSTRTAYLEVRNLGSDDTAVYYCARKPRFYYDTSAWFEFWGQGTLVTVSS VL: DIVLTQSPETLSVSPGESATLSCRASQSVSTDLAWYQHKPGQAPRLLIWGASTRATGIPARFSGSGSGTEFTLTISSLQSEDFAICFCHQYNNWPTFGQGTKVEIK | 1.6
TT-8 (antibody, V domains shown, also called VH-9/VL-9) VH: QVQLVESGGGLVKPGGSLRLSCAASGFSFSHYSMNWIRQAPGKGLEWVASITSGSTNMVYADSLRARFSISRDNAKNSLYLQMDSLSAEDTAVYYCARKGMGHYFDFWGQGTPVTVSS VL: QTVVTQEPSSSVSLGGTVTLTCGLTSGPVTGAYYPSWHQQTPGQAPRTLIYNTYSLSSGVSDRFSGSILGNKAALTISGAQADDESDYYCVLYMGSGIWMFGGGTKLTVL | 2.8
TT-6 (antibody, V domains shown, also called VH-7/VL-7) VH: QVQLVESGSEVRKPGASVKVSCKASGYTFSRYGLTWVRQAPGQGLEWMGWISGYNSNTNYAPKFQGRVTMTTDTSTNTAYLELRSLRSNDTAVYYCARDYFHSGSQYFFDYWGQGSLVTVSS VL: DIRLTQSPSSLSASVGDRVTITCRSSQTISTYLNWYQQKPGEAPKILIYAASSLHTGVPSRFSGSGSGTDFTLTITSLQPEDFAIYHCQQSYSTPYTFGQGTKVEIK | 0.6
TT-5 (antibody, V domains shown, also called VH-5/VL-5) VH: QVQLQESGPGLVKPSETLSLTCTVSGGSINSYYWSWIRQSPGKGLEWIGYIYYTGINKYNPSLKSRVTISMDTSKRQVSLKVTSLTPADTAVYFCARLHPTCASTRCPENYGMDVWGQGTTVAVSS VL: DIRLTQSPSSLSASVGDRVTITCRSSQTISTYLNWYQQKPGEAPKILIYAASSLHTGVPSRFSGSGSGTDFTLTITSLQPEDFAIYHCQQSYSTPYTFGQGTKVEIK | 18.1
TT-9 (antibody, V domains shown, also called VH-10/VL-10) VH: QVQLQESGPGLVKPSGTLSLTCAVSGVPVYTGHWWTWVRQAPGKGLEWIGEIHHTVTTNYNPSLRSRVTISEDRSKNQISLTLQSVTAADTAVYFCARGEDCVGGSCYSADWGQGILVTVSS VL: EIVLTQSPSSLSASVGDRVTITCRASQNIHLFLNWYQQRPGRVPKVLIYATSTLQSGVPSRFSGSGSGTDFTLTISSVQPEDFATYYCQQSFSTPRTFGPGTKVEIK | 0.1
TT-3 (antibody, V domains shown, also called VH-3/VL-3) VH: QVQLVQSGAEVKKPGASVRVSCKASGYTFTRYAMHWVRQAPGQRPEWMGWINVDNGNTEYSQKFQGRLTITRDTSASTAYMELSSLTSDDTAVYYCAKDRVRVVQAATTLDFWGQGTLVTVSS VL: EIVLTQSPGTLSLSPGERATLSCRASQTIPSKYLGWYQQKLGQAPRLLIYGASSRATGIPDRFSGSGSGTDFTLTISRLEPEDFAVYYCQQYGSLSAITFGQGTRLEIK | 3.7
TT-2 (antibody, V domains shown, also called VH-2/VL-2) VH: QVQLVQSGGGVKQPGGSLRLSCTASGFTFEDFNMHWVRQAPGKGLEWISYISGDGDRTHYSDSVRGRFTISRDNSGNSLYLQMTSLRTEDAGFYYCGKSYDYIRENLDSWGQGTLVTVSS VL: QPGLTQPPSVSVAPGQTARITCGGNNIGSRHVHWYQQRPGQAPVLVVYDDDARPSGISGRFSGSNSGNTATLTISWVEAGDEADYYCQVSDSGREWGVFGSGTKVTVL | 22.6
TT-4 (antibody, V domains shown, also called VH-4/VL-4) VH: QVTLKESGPALVKPTQTLTLTCTFSGFSLLSSGMCVSWIRQPPGKALEWLARIDWDEKKYYSPSLKTRLTISKDTSKDQVVLTMTNMDPLDTAMYSCARGVVPAGIPFDFWGQGIMVTVSS VL: ETTLTQSPSTLPASVGDRVTITCRASENINSWLAWYQQKPGKAPKILIYRASNLESGVPSRFSGSGSGTEFTLTISSLQPDDFATYYCQHFDKYFSWTFGHGTKVEIK | 3.2
